For data set [1], the system named is recombinant Caspase-6 (Origene, Cat. TP760261).
Data set [2] concerns purified Bax-HA expressed in HEK293T cells.
For data set [3], the system named is purified Bid-HA expressed in HEK293T cells.
The test system of data set [4] is T1, recombinant Bid (R&D Systems, Cat. 846-BD-50).
T1 sequence: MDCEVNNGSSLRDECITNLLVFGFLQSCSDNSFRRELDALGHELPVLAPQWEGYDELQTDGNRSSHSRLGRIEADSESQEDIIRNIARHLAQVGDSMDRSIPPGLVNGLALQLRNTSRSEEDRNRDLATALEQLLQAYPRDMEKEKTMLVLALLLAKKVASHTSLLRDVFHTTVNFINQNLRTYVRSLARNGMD

Data set [5] concerns purified caspase-6-myc expressed in HEK293T cells.

Consider seven substances from patent publication US20220184172.

Chain of recombinant AMPKα1β1γ1 active kinase (Q13131 whole entry): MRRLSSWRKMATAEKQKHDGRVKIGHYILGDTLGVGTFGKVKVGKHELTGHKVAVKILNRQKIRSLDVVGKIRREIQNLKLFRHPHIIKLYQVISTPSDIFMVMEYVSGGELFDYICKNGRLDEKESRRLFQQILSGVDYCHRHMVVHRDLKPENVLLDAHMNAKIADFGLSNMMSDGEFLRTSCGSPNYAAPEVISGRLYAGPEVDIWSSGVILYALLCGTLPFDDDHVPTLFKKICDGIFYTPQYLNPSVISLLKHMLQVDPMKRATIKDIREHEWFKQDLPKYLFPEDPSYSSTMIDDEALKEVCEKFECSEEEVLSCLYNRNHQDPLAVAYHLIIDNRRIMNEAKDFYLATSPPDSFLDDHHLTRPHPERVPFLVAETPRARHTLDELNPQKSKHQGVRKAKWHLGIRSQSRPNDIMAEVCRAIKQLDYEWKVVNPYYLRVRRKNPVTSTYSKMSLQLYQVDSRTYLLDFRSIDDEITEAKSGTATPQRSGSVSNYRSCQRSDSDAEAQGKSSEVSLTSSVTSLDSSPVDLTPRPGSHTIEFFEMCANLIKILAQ
Chain of recombinant AMPKα1β1γ1 active kinase (Q9Y478 2-270, further chain): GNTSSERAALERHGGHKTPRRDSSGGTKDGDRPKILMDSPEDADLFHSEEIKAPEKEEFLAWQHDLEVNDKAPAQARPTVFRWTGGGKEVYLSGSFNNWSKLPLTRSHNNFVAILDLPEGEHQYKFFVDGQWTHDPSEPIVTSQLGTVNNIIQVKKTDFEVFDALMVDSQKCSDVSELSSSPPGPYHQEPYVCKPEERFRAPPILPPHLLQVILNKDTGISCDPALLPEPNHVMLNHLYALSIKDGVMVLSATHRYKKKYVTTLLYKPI
Chain of recombinant AMPKα1β1γ1 active kinase (P54619 whole entry, further chain): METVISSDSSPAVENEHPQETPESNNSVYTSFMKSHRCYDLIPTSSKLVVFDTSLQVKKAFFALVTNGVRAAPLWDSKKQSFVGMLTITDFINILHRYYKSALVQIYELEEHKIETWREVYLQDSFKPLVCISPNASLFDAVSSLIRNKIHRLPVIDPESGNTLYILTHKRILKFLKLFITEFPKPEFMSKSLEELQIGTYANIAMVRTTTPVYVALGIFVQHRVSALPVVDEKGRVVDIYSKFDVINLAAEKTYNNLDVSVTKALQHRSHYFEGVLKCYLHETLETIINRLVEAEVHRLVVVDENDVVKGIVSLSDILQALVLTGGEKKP
Chain of recombinant AMPKα2β1γ1 active kinase (P54646 whole entry): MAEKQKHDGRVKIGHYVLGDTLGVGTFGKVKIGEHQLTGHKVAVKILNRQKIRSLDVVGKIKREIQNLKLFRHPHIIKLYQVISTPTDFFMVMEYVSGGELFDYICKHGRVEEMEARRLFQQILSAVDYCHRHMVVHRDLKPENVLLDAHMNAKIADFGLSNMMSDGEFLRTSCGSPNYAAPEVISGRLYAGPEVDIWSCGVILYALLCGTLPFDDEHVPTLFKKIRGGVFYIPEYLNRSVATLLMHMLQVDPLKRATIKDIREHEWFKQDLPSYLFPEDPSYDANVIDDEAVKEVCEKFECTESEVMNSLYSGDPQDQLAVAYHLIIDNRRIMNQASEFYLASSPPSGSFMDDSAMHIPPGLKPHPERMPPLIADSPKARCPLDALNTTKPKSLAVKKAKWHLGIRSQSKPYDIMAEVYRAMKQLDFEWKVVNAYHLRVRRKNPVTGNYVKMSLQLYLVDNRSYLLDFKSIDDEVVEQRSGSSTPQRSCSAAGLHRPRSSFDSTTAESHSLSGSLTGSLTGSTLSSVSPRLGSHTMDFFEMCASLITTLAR
Chain of recombinant AMPKα2β1γ1 active kinase (Q9Y478 2-270, further chain): as the sequence (Q9Y478 2-270, further chain) above
Chain of recombinant AMPKα2β1γ1 active kinase (P54619 whole entry, further chain): as the sequence (P54619 whole entry, further chain) above

On to active caspase-3, for which the “in vitro cleavage assay” value in data set [1] was “procaspase-6 was directly cleaved by caspase-3 and -7, but not caspase-8 or -9”. Regarding active caspase-8, in data set [1], the “in vitro cleavage assay” value was “procaspase-6 was directly cleaved by caspase-3 and -7, but not caspase-8 or -9”. Regarding recombinant AMPKα2β1γ1 active kinase, in data set [1], the “in vitro kinase assay, phosphorylation of Ser257” value was “Both recombinant AMPKα1 and AMPKα2 directly phosphorylated procaspase-6 at Ser^257 in vitro”.

Consider active caspase-6, for which the “in vitro cleavage assay” value in data set [2] was “active caspase-6 cleaved purified Bcl2 family protein Bid (BH3 interacting-domain death agonist), but not Bax (Bcl2 associated X) in vitro”; in data set [3], “active caspase-6 cleaved purified Bcl2 family protein Bid (BH3 interacting-domain death agonist), but not Bax (Bcl2 associated X) in vitro”; in data set [4], “Active caspase-6 cleaves Bid to generate two cleaved peptide fragments”. recombinant AMPKα1β1γ1 active kinase: the “in vitro kinase assay, phosphorylation of Ser257 (FIG. 15C)” value in data set [5] was “Both recombinant AMPKα1 and AMPKα2 directly phosphorylated procaspase-6 at Ser^257 in vitro”. Also, the “in vitro kinase assay, phosphorylation of Ser257” value in data set [1] was “Both recombinant AMPKα1 and AMPKα2 directly phosphorylated procaspase-6 at Ser^257 in vitro”. Turning to active caspase-9, the “in vitro cleavage assay” value in data set [1] is “procaspase-6 was directly cleaved by caspase-3 and -7, but not caspase-8 or -9”. With active caspase-7, the “in vitro cleavage assay” value in data set [1] was “procaspase-6 was directly cleaved by caspase-3 and -7, but not caspase-8 or -9”.
